The results in this text go back to publication PMC7831379.

One may read the stoichiometry N as the number of molecules, sites or subunits per partner or assembly.

The target of the assay is pre-stabilized HIV-1 CA A14C/E45C/W184A/M185A hexamer (HIV-1). Kind of assay: crystal structure.

The substance “pre-stabilized HIV-1 CA A14C/E45C/W184A/M185A hexamer (natural protein)” showed a stoichiometry N of 6.
